From patent publication US20250368745A1 (published 2025)
Where a chain is given by its changes, count along the chain named.

T1: human IL-18BP (human, UniProt O95998 31-194)
T1 construct: UniProt printed as 095998; also called hIL-18BP
T1 sequence: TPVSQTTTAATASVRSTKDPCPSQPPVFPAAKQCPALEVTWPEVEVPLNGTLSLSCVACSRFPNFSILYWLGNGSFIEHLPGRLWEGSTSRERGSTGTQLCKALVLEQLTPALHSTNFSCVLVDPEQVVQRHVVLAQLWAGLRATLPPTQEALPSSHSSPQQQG

T2: cynomolgus IL-18BP (cynomolgus monkey)
T2 construct: also called cyno IL-18BP; cyIL-18BP
T2 chain: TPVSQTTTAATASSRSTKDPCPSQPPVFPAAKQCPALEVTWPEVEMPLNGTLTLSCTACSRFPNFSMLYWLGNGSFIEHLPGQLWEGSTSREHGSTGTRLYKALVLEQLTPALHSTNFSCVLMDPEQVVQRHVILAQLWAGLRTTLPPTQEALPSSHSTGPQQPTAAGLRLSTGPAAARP

B1: SA301a HC-I99A (antibody, name in Kabat numbering, V domains shown)
VH: QVQLQESGPGLVKPSQTLSLTCTVSGYSITSDYNSHWIRQPPGKGLEWIGYIHYSGSTNYNPSLKSRVTISRDTSKNQFSLKLSSVTAADTAVYYCARNYGSAYVNYFDYWGQGTLVTVSS
VL: EIVLTQSPATLSLSPGERATLSCSASSSVSYMYWYQQKPGQAPRPLIYRTSNLASGIPARFSGSGSGTDFTLTISSLEPEDFAVYYCQQYHSYPTFGGGTKVEIK
notes: IgG1 kappa
B2: SA301a HC-I99D (antibody, name in Kabat numbering, V domains shown)
VH: B1 VH with A103D
VL: B1 VL
notes: IgG1 kappa
B3: SA301a HC-V100aS (antibody, name in Kabat numbering, V domains shown)
VH: B1 VH with A103I, V105S
VL: B1 VL
notes: IgG1 kappa
B4: SA301a HC-I99E (antibody, name in Kabat numbering, V domains shown)
VH: B1 VH with A103E
VL: B1 VL
notes: IgG1 kappa
B5: SA301a HC-V100aI (antibody, name in Kabat numbering, V domains shown)
VH: B1 VH with A103I, V105I
VL: B1 VL
notes: IgG1 kappa
B6: SA301a HC-N100bE (antibody, name in Kabat numbering, V domains shown)
VH: B1 VH with A103I, N106E
VL: B1 VL
notes: IgG1 kappa
B7: SA301a HC-V100aF (antibody, name in Kabat numbering, V domains shown)
VH: B1 VH with A103I, V105F
VL: B1 VL
notes: IgG1 kappa
B8: SA301a HC-V100aN (antibody, name in Kabat numbering, V domains shown)
VH: B1 VH with A103I, V105N
VL: B1 VL
notes: IgG1 kappa
B9: SA301a HC-V100aA (antibody, name in Kabat numbering, V domains shown)
VH: B1 VH with A103I, V105A
VL: B1 VL
notes: IgG1 kappa
B10: SA301a HC-V100aD (antibody, name in Kabat numbering, V domains shown)
VH: B1 VH with A103I, V105D
VL: B1 VL
notes: IgG1 kappa
B11: SA301a HC-I99L (antibody, name in Kabat numbering, V domains shown)
VH: B1 VH with A103L
VL: B1 VL
notes: IgG1 kappa
B12: SA301a HC-I99Y (antibody, name in Kabat numbering, V domains shown)
VH: B1 VH with A103Y
VL: B1 VL
notes: IgG1 kappa
B13: SA301a HC-I99P (antibody, name in Kabat numbering, V domains shown)
VH: B1 VH with A103P
VL: B1 VL
notes: IgG1 kappa
B14: SA301a HC-N100bY (antibody, name in Kabat numbering, V domains shown)
VH: B1 VH with A103I, N106Y
VL: B1 VL
notes: IgG1 kappa
B15: SA301a HC-V100aH (antibody, name in Kabat numbering, V domains shown)
VH: B1 VH with A103I, V105H
VL: B1 VL
notes: IgG1 kappa
B16: SA301a HC-N100bQ (antibody, name in Kabat numbering, V domains shown)
VH: B1 VH with A103I, N106Q
VL: B1 VL
notes: IgG1 kappa
B17: SA301a HC-N100bR (antibody, name in Kabat numbering, V domains shown)
VH: B1 VH with A103I, N106R
VL: B1 VL
notes: IgG1 kappa

What was measured:
[1] = target: T1, human IL-18BP; experiment: BLI, apparent KD
[2] = target: T2, cynomolgus IL-18BP; experiment: BLI, apparent KD

Binder	Kd [1] [pM]	Kd [2] [pM]
B1	510	610
B2	1010	1070
B3	280	530
B4	1950	3980
B5	90	250
B6	310	910
B7	–	440
B8	680	110
B9	470	150
B10	4990	360
B11	490	890
B12	480	450
B13	410	510
B14	–	470
B15	410	60
B16	–	420
B17	250	–
